Patent US20190060430A1 (published 2019)
Substitutions are numbered along the chain they refer to.

T1: hCMV pp65 peptide on HLA-DRB1*07:01 (human)
T1 peptide: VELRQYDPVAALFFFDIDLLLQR

T2: TPTE peptide on HLA-DRB1*15:01 (human)
T2 peptide: DVVYIFFDIKLLRNI

T3: PLAC1 peptide on HLA-A*02:01 (human)
T3 peptide: CSIDWFMVTVHP

T4: PLAC1 peptide on HLA-A*02:01 (human)
T4 peptide: VLCSIDWFM

T5: PLAC1 peptide on HLA-A*02:01 (human)
T5 peptide: SIDWFMVTV

T6: NY-ESO-1 peptide on HLA-B*35:08 (human)
T6 peptide: LAMPFATPM

B1: TCRCD4-CMV#3 (TCR, V domains shown)
Valpha: AQSVTQLDSQVPVFEEAPVELRCNYSSSVSVYLFWYVQYPNQGLQLLLKYLSGSTLVKGINGFEAEFNKSQTSFHLRKPSVHISDTAEYFCAVSSYGSSNTGKLIFGQGTTLQVKP
Vbeta: NAGVTQTPKFQVLKTGQSMTLQCAQDMNHNSMYWYRQDPGMGLRLIYYSASEGTTDKGEVPNGYNVSRLNKREFSLRLESAAPSQTSVYFCASSTAGGRNYGYTFGSGTRLTVV
B2: TCRCD4-TPT#48/2 (TCR, V domains shown)
Valpha: AQSVTQPDIHITVSEGASLELRCNYSYGATPYLFWYVQSPGQGLQLLLKYFSGDTLVQGIKGFEAEFKRSQSSFNLRKPSVHWSDAAEYFCAVGAYDMRFGAGTRLTVKP
Vbeta: DVKVTQSSRYLVKRTGEKVFLECVQDMDHENMFWYRQDPGLGLRLIYFSYDVKMKEKGDIPEGYSVSREKKERFSLILESASTNQTSMYLCASNRLNTEAFFGQGTRLTVV
B3: TCRCD8-mPL#12 (TCR, V domains shown)
Valpha: GDQVEQSPSALSLHEGTGSALRCNFTTTMRAVQWFQQNSRGSLINLFYLASGTKENGRLKSTFNSKESYSTLHIRDAQLEDSGTYFCAAVNTNTGKLTFGDGTVLTVKP
Vbeta: SVLLYQKPNRDICQSGTSLKIQCVADSQVVSMFWYQQFQEQSLMLMATANEGSEATYESGFTKDKFPISRPNLTFSTLTVNNARPGDSSIYFCSSRTPNTGQLYFGEGSKLTVL
B4: TCRCD8-NY#15 (TCR, V domains shown)
Valpha: QKEVEQNSGPLSVPEGAIASLNCTYSDRGSQSFFWYRQYSGKSPELIMSIYSNGDKEDGRFTAQLNKASQYVSLLIRDSQPSDSATYLCAVPYYWSSGGSNYKLTFGKGTLLTVNP
Vbeta: DTEVTQTPKHLVMGMTNKKSLKCEQHMGHRAMYWYKQKAKKPPELMFVYSYEKLSINESVPSRFSPECPNSSLLNLHLHALQPEDSALYLCASSQSGLEETQYFGPGTRLLVL
B5: TCRCD4-NY#5 (TCR, V domains shown)
Valpha: AQSVTQLGSHVSVSEGALVLLRCNYSSSVPPYLFWYVQYPNQGLQLLLKYTTGATLVKGINGFEAEFKKSETSFHLTKPSAHMSDAAEYFCAVSRANFGNEKLTFGTGTRLTIIP
Vbeta: B4 Vbeta with S96D, G97P, L98R, E99G, E100G, T101P, Y103H, P106D, L111S, V112I
B6: TCRCD8-NY#8 (TCR, V domains shown)
Valpha: AQSVTQLDSQVPVFEEAPVELRCNYSSSVSVYLFWYVQYPNQGLQLLLKYLSGSTLVKGINGFEAEFNKSQTSFHLRKPSVHISDTAEYFCAVSDQGTGGFKTIFGAGTRLFVKA
Vbeta: DVKVTQSSRYLVKRTGEKVFLECVQDMDHENMFWYRQDPGLGLRLIYFSYDVKMKEKGDIPEGYSVSREKKERFSLILESASTNQTSMYLCASRGTVTSSLMNTEAFFGQGTRLTVV
B7: TCRCD8-NY#6 (TCR, V domains shown)
Valpha: SQQGEEDPQALSIQEGENATMNCSYKTSINNLQWYRQNSGRGLVHLILIRSNEREKHSGRLRVTLDTSKKSSSLLITASRAADTASYFCATDEYGNKLVFGAGTILRVKS
Vbeta: DAGVIQSPRHEVTEMGQEVTLRCKPISGHNSLFWYRQTMMRGLELLIYFNNNVPIDDSGMPEDRFSAKMPNASFSTLKIQPSEPRDSAVYFCASSYPGFNEQFFGPGTRLTVL
B8: TCRCD4-TPT#91 (TCR, V domains shown)
Valpha: EDQVTQSPEALRLQEGESSSLNCSYTVSGLRGLFWYRQDPGKGPEFLFTLYSAGEEKEKERLKATLTKKESFLHITAPKPEDSATYLCAVLGGSNYKLTFGKGTLLTVNP
Vbeta: NAGVTQTPKFQVLKTGQSMTLQCAQDMNHNSMYWYRQDPGMGLRLIYYSASEGTTDKGEVPNGYNVSRLNKREFSLRLESAAPSQTSVYFCAISRDSYEQYFGPGTRLTVT
B9: TCRCD8-mPL#8 (TCR, V domains shown)
Valpha: TQTVSQSDAHVTVFEGDSVELRCNYSYGGSIYLSWYIQHHGRGLQFLLKYYSGNPVVQGVNGFKAEFSKSDSSFHLRKASVHWSDSAVYFCAVSAGGYKVVFGSGTRLLVSP
Vbeta: NTKITQSPRYLILGRANKSLECEQHLGHNAMYWYKQSAEKPPELMFLYNLKQLIRNETVPSRFIPECPDSSKLLLHISAVDPEDSAVYFCASSPGGAEQFFGPGTRLTVL
B10: TCRCD8-mPL#14 (TCR, V domains shown)
Valpha: B9 Valpha with R42H, K64E, A95S
Vbeta: B9 Vbeta with P94Q, A97T, Q99V, P103K, L110V
B11: TCRCD8-NY#5 (TCR, V domains shown)
Valpha: ILNVEQSPQSLHVQEGDSTNFTCSFPSSNFYALHWYRWETAKSPEALFVMTLNGDEKKKGRISATLNTKEGYSYLYIKGSQPEDSATYLCASTSYSSASKIIFGSGTRLSIRP
Vbeta: GAGVSQSPRYKVTKRGQDVALRCDPISGHVSLYWYRQALGQGPEFLTYFNYEAQQDKSGLPNDRFSAERPEGSISTLTIQRTEQRDSAMYRCASSHSSGGAGELFFGEGSRLTVL
B12: TCRCD8-mPL#22 (TCR, V domains shown)
Valpha: GQQVQQSPASLVLQEGENAELQCNFSSTATRLQWFYQHPGGRLVSLFYNPSGTKHTGRLTSTTVTNERRSSLHISSSQTTDSGTYFCAAASNTNKVVFGTGTRLQVLP
Vbeta: GALVYQYPRRTICKSGTSMRMECQAVGFQATSVAWYRQSPQKTFELIALSTVNSAIKYEQNFTQEKFPISHPNLSFSSMTVLNAYLEDRGLYLCGVDRANYAEQFFGPGTRLTVL
B13: TCRCD4-TPT#67 (TCR, V domains shown)
Valpha: QKEVEQDPGPLSVPEGAIVSLNCTYSNSAFQYFMWYRQYSRKGPELLMYTYSSGNKEDGRFTAQVDKSSKYISLFIRDSQPSDSATYLCALYTGGFKTIFGAGTRLFVKA
Vbeta: KAGVTQTPRYLIKTRGQQVTLSCSPISGHRSVSWYQQTPGQGLQFLFEYFSETQRNKGNFPGRFSGRQFSNSRSEMNVSTLELGDSALYLCASSFMGTEQYFGPGTRLTVT
B14: TCRCD8-mPL#19 (TCR, V domains shown)
Valpha: GDSVIQMQGQVTLSENDFLFINCTYSTTGYPTLFWYVQYSGEGPQLLLQVTTANNKGSSRGFEATYDKGTTSFHLQKTSVQEIDSAVYYCAMSDASGSWQLIFGSGTQLTVMP
Vbeta: EAAVTQSPRSKVAVTGGKVTLSCHQTNNHDYMYWYRQDTGHGLRLIHYSYVADSTEKGDIPDGYKASRPSQENFSLILELASLSQTAVYFCASSPDRPSYNSPLYFAAGTRLTVT
B15: TCRCD8-mPL#20 (TCR, V domains shown)
Valpha: GDSVTQKEGLVTLTEGLPVMLNCTYQTIYSNAFLFWYVHYLNESPRLLLKSSTDNKRTEHQGFHATLHKSSSSFHLQKSSAQLSDSALYYCALNNVGDNSKLIWGLGTSLVVNP
Vbeta: NTKITQSPRYLILGRANKSLECEQHLGHNAMYWYKQSAEKPPELMFLYNLKQLIRNETVPSRFIPECPDSSKLLLHISAVDPEDSAVYFCASSQYGGANTEVFFGKGTRLTVV
B16: TCRCD4-NY#11 (TCR, V domains shown)
Valpha: AQSVSQHNHHVILSEAASLELGCNYSYGGTVNLFWYVQYPGQHLQLLLKYFSGDPLVKGIKGFEAEFIKSKFSFNLRKPSVQWSDTAEYFCAVNRRTGNQGGKLIFGQGTELSVKP
Vbeta: EAGVAQSPRYKIIEKRQSVAFWCNPISGHATLYWYQQILGQGPKLLIQFQNNGVVDDSQLPKDRFSAERLKGVDSTLKIQPAKLEDSAVYLCASSLGPYIDGAGCTFGSGTRLTVV
B17: TCRCD8-mPL#17 (TCR, V domains shown)
Valpha: QQQVRQSPQSLTVWEGETAILNCSYEDSTFNYFPWYQQFPGEGPALLISIRSVSDKKEDGRFTIFFNKREKKLSLHITDSQPGDSATYFCAPNNRIFFGDGTQLVVKP
Vbeta: EAAVTQSPRNKVAVTGGKVTLSCNQTNNHNNMYWYRQDTGHGLRLIHYSYGAGSTEKGDIPDGYKASRPSQENFSLILELATPSQTSVYFCASLGYNYAEQFFGPGTRLTVL
B18: TCRCD8-mPL#2 (TCR, V domains shown)
Valpha: GDSVTQTEGQVTVSESKSLIINCTYSATSIGYPNLFWYVRYPGEGLQLLLKVITAGQKGSSRGFEATYNKEATSFHLQKASVQESDSAVYYCALSDSNYQLIWGSGTKLIIKP
Vbeta: DPKIIQKPKYLVAVTGSEKILICEQYLGHNAMYWYRQSAKKPLEFMFSYSYQKLMDNQTASSRFQPQSSKKNHLDLQITALKPDDSATYFCASSPDNSGNTLYFGEGSRLIVV
B19: TCRCD8-mPL#11 (TCR, V domains shown)
Valpha: GDSVTQTEGPVTVSESESLIINCTYSATSIAYPNLFWYVRYPGEGLQLLLKVITAGQKGSSRGFEATYNKETTSFHLQKASVQESDSAVYYCALGLGYKLTFGTGTSLLVDP
Vbeta: B18 Vbeta with P95G

How the values were obtained:
Assay in all cases: cytokine release
[1] = target: T1, hCMV pp65 peptide on HLA-DRB1*07:01
[2] = target: T2, TPTE peptide on HLA-DRB1*15:01
[3] = target: T3, PLAC1 peptide on HLA-A*02:01
[4] = target: T4, PLAC1 peptide on HLA-A*02:01
[5] = target: T5, PLAC1 peptide on HLA-A*02:01
[6] = target: T6, NY-ESO-1 peptide on HLA-B*35:08
[7] = target: NY-ESO-1 peptide on HLA-DRB1*11:01 (human)

Binder	binding result [3]	binding result [4]	binding result [5]	other results
B1				binding result [1]: recognises
B2				binding result [2]: recognises
B3	recognises	recognises	recognises	
B4				binding result [6]: recognises
B5				binding result [7]: recognises
B6				binding result [6]: recognises
B7				binding result [6]: recognises
B8				binding result [2]: recognises
B9	recognises	recognises	recognises	
B10	recognises	recognises	recognises	
B11				binding result [6]: recognises
B12	recognises	recognises	recognises	
B13				binding result [2]: recognises
B14	recognises	recognises	recognises	
B15	recognises	recognises	recognises	
B16				binding result [7]: recognises
B17	recognises	recognises	recognises	
B18	recognises	recognises	recognises	
B19	recognises	recognises	recognises	
